Source: patent publication US20140274782A1, “AFFINITY REAGENTS AND METHODS FOR DETECTION, PURIFICATION, AND PROTEOMIC ANALYSIS OF METHYLATED PROTEINS” (The Board of Trustees of the Leland Stanford Junior …, priority 2013, published 2014)

B1: CPSF1 (protein, UniProt Q10570 1-1443, looked up)
Cleavage and polyadenylation …: MYAVYKQAHPPTGLEFSMYCNFFNNSERNLVVAGTSQLYVYRLNRDAEALTKNDRSTEGKAHREKLELAASFSFFGNVMSMASVQLAGAKRDALLLSFKDAKLSVVEYDPGTHDLKTLSLHYFEEPELRDGFVQNVHTPRVRVDPDGRCAAMLVYGTRLVVLPFRRESLAEEHEGLVGEGQRSSFLPSYIIDVRALDEKLLNIIDLQFLHGYYEPTLLILFEPNQTWPGRVAVRQDTCSIVAISLNITQKVHPVIWSLTSLPFDCTQALAVPKPIGGVVVFAVNSLLYLNQSVPPYGVALNSLTTGTTAFPLRTQEGVRITLDCAQATFISYDKMVISLKGGEIYVLTLITDGMRSVRAFHFDKAAASVLTTSMVTMEPGYLFLGSRLGNSLLLKYTEKLQEPPASAVREAADKEEPPSKKKRVDATAGWSAAGKSVPQDEVDEIEVYGSEAQSGTQLATYSFEVCDSILNIGPCANAAVGEPAFLSEEFQNSPEPDLEIVVCSGHGKNGALSVLQKSIRPQVVTTFELPGCYDMWTVIAPVRKEEEDNPKGEGTEQEPSTTPEADDDGRRHGFLILSREDSTMILQTGQEIMELDTSGFATQGPTVFAGNIGDNRYIVQVSPLGIRLLEGVNQLHFIPVDLGAPIVQCAVADPYVVIMSAEGHVTMFLLKSDSYGGRHHRLALHKPPLHHQSKVITLCLYRDLSGMFTTESRLGGARDELGGRSGPEAEGLGSETSPTVDDEEEMLYGDSGSLFSPSKEEARRSSQPPADRDPAPFRAEPTHWCLLVRENGTMEIYQLPDWRLVFLVKNFPVGQRVLVDSSFGQPTTQGEARREEATRQGELPLVKEVLLVALGSRQSRPYLLVHVDQELLIYEAFPHDSQLGQGNLKVRFKKVPHNINFREKKPKPSKKKAEGGGAEEGAGARGRVARFRYFEDIYGYSGVFICGPSPHWLLVTGRGALRLHPMAIDGPVDSFAPFHNVNCPRGFLYFNRQGELRISVLPAYLSYDAPWPVRKIPLRCTAHYVAYHVESKVYAVATSTNTPCARIPRMTGEEKEFETIERDERYIHPQQEAFSIQLISPVSWEAIPNARIELQEWEHVTCMKTVSLRSEETVSGLKGYVAAGTCLMQGEEVTCRGRILIMDVIEVVPEPGQPLTKNKFKVLYEKEQKGPVTALCHCNGHLVSAIGQKIFLWSLRASELTGMAFIDTQLYIHQMISVKNFILAADVMKSISLLRYQEESKTLSLVSRDAKPLEVYSVDFMVDNAQLGFLVSDRDRNLMVYMYLPEAKESFGGMRLLRRADFHVGAHVNTFWRTPCRGATEGLSKKSVVWENKHITWFATLDGGIGLLLPMQEKTYRRLLMLQNALTTMLPHHAGLNPRAFRMLHVDRRTLQNAVRNVLDGELLNRYLYLSTMERSELAKKIGTTPDIILDDLLETDRVTAHF
B2: SYNCRIP (protein, UniProt O60506 2-623, looked up)
Heterogeneous nuclear …: ATEHVNGNGTEEPMDTTSAVIHSENFQTLLDAGLPQKVAEKLDEIYVAGLVAHSDLDERAIEALKEFNEDGALAVLQQFKDSDLSHVQNKSAFLCGVMKTYRQREKQGTKVADSSKGPDEAKIKALLERTGYTLDVTTGQRKYGGPPPDSVYSGQQPSVGTEIFVGKIPRDLFEDELVPLFEKAGPIWDLRLMMDPLTGLNRGYAFVTFCTKEAAQEAVKLYNNHEIRSGKHIGVCISVANNRLFVGSIPKSKTKEQILEEFSKVTEGLTDVILYHQPDDKKKNRGFCFLEYEDHKTAAQARRRLMSGKVKVWGNVGTVEWADPIEDPDPEVMAKVKVLFVRNLANTVTEEILEKAFSQFGKLERVKKLKDYAFIHFDERDGAVKAMEEMNGKDLEGENIEIVFAKPPDQKRKERKAQRQAAKNQMYDDYYYYGPPHMPPPTRGRGRGGRGGYGYPPDYYGYEDYYDYYGYDYHNYRGGYEDPYYGYEDFQVGARGRGGRGARGAAPSRGRGAAPPRGRAGYSQRGGPGSARGVRGARGGAQQQRGRGVRGARGGRGGNVGGKRKADGYNQPDSKRRQTNNQNWGSQPIAQQPLQGGDHSGNYGYKSENQEFYQDTFGQQWK

What was measured:
[1] = target: T1, G9a and GLP (Homo sapiens, UniProt Q96KQ7+Q9H9B1); experiment: Triple SILAC pull-down after UNC0638 treatment of 293T cells, DMSO/UNC0638 ratio of protein captured by 3×MBT; type: cell-based; set-up: endogenous in cells; host or cells: HEK 293T; settings: for Relative to UNC0638 UNC Heavy / Relative to UNC0638 UNC Light: SILAC ratio DMSO/UNC0638 of protein pulled down with 3xMBT; for Relative to UNC0638 UNC Heavy: UNC0638 in heavy SILAC media; for Relative to UNC0638 UNC Light: UNC0638 in light SILAC media; for Relative to UNC0638 Average: average of UNC Light and UNC Heavy experiments;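 for all read-outs here: mass spectrometry (Q-Exactive) SILAC quantitation, DMSO/UNC0638 ratio computed after subtracting 3×MBTD355N mutant pull-down background, only proteins with at least twofold 3×MBT over mutant signal considered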
T1 sequence (Q96KQ7 2-1210 limits assumed): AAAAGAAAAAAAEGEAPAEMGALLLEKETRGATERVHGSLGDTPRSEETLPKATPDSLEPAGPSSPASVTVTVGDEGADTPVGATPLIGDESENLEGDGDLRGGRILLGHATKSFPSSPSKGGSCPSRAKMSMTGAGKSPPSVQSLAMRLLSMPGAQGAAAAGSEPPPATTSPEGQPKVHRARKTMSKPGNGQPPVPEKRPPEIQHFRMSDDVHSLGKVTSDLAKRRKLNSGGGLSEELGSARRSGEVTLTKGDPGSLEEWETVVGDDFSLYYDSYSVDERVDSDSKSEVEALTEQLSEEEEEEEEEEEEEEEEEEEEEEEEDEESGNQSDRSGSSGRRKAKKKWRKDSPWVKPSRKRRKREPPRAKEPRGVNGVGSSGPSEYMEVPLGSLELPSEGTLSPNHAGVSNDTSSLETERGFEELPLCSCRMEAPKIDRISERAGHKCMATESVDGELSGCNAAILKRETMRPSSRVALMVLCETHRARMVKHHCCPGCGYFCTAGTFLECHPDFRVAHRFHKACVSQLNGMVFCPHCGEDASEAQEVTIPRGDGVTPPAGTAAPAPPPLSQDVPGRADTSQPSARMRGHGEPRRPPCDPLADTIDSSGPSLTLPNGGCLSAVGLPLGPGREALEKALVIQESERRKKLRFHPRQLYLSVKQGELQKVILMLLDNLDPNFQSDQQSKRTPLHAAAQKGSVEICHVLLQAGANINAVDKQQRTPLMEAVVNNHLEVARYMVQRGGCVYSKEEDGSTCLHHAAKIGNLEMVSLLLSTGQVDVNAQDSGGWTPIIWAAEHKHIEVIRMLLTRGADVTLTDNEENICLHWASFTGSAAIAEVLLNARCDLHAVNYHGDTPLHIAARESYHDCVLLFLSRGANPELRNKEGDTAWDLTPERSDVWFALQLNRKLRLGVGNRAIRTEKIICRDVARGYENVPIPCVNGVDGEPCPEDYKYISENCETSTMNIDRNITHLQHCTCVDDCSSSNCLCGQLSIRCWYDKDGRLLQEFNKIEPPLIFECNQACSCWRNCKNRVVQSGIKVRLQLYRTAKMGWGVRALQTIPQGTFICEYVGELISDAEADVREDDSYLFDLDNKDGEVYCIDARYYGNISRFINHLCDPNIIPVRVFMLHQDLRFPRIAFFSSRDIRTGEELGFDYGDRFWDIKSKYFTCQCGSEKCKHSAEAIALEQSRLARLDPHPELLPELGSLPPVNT
T1 sequence (Q9H9B1 2-1298 limits assumed): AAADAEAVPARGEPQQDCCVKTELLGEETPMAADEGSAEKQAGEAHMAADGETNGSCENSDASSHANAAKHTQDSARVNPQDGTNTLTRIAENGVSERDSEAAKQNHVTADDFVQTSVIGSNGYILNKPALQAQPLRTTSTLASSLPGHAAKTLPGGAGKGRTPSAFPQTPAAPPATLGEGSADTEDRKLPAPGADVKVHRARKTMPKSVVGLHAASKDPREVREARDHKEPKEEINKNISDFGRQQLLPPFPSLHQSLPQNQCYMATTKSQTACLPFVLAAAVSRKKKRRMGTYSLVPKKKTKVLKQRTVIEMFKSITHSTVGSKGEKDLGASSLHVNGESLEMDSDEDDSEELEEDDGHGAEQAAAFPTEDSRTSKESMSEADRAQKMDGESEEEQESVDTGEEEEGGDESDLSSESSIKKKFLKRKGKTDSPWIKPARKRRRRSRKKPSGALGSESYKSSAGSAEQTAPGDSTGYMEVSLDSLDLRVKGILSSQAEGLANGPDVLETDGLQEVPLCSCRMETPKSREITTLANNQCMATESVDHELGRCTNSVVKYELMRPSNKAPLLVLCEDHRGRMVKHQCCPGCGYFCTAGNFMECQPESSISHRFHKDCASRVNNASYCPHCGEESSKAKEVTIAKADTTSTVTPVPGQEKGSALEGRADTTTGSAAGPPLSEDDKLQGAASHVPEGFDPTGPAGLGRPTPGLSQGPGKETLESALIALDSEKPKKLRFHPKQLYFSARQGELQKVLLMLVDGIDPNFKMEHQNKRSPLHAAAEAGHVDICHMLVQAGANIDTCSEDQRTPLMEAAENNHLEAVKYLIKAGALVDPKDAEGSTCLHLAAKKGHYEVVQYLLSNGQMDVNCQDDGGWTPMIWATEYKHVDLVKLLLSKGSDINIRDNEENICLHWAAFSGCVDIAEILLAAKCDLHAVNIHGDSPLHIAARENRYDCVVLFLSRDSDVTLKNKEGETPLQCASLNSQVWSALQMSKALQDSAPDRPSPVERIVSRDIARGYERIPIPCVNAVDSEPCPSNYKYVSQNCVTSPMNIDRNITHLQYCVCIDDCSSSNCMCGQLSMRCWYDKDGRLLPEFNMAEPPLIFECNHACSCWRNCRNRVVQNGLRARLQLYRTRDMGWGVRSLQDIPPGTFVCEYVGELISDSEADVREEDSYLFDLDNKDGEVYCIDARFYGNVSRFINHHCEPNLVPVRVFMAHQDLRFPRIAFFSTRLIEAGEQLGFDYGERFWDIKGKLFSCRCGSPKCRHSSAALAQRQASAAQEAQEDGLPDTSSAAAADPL

[2] = system: 3×MBT domain of L3MBTL1; experiment: Triple SILAC pull-down, 3xMBT/3xMBTD355N ratio (cytoplasmic, nuclear and chromatin fractions of 293T cells); type: binding, human; settings: SILAC ratio, pull-down 3xMBT vs 3xMBTD355N; for 3xMBT/D355N UNC Heavy: experiment with UNC0638 in heavy SILAC media; for 3xMBT/D355N UNC Light: experiment with UNC0638 in light SILAC media;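 for all read-outs here: proteins quantified with MaxQuant, requiring at least two unique peptides and quantification in both label directions, normalized to the mean of proteins from a digested loading control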

Row | Molecule | Relative to UNC0638 UNC Heavy [1] | Relative to UNC0638 UNC Light [1] | Relative to UNC0638 Average [1] | 3xMBT/D355N UNC Heavy [2] | 3xMBT/D355N UNC Light [2]
1 | B1 | 0.17 log base 2 | 0.15 log base 2 | 0.16 log base 2 | 2.44 log base 2 | 3.15 log base 2
2 | B2 | 0.14 log base 2 | 0.17 log base 2 | 0.15 log base 2 | 2.28 log base 2 | 3.48 log base 2
